Laboratory results reported in ChEMBL document CHEMBL1130356, “A CHROMOGENIC SUBSTRATE FOR THE CONTINUOUS ASSAY OF MAMMALIAN PHOSPHOINOSITIDE-SPECIFIC PHOSPHOLIPASE C” (Bioorg Med Chem Lett, 1997).

T1: 1-phosphatidylinositol 4,5-bisphosphate phosphodiesterase beta-1 (Homo sapiens) (UniProt Q9NQ66)
T1 sequence (whole entry): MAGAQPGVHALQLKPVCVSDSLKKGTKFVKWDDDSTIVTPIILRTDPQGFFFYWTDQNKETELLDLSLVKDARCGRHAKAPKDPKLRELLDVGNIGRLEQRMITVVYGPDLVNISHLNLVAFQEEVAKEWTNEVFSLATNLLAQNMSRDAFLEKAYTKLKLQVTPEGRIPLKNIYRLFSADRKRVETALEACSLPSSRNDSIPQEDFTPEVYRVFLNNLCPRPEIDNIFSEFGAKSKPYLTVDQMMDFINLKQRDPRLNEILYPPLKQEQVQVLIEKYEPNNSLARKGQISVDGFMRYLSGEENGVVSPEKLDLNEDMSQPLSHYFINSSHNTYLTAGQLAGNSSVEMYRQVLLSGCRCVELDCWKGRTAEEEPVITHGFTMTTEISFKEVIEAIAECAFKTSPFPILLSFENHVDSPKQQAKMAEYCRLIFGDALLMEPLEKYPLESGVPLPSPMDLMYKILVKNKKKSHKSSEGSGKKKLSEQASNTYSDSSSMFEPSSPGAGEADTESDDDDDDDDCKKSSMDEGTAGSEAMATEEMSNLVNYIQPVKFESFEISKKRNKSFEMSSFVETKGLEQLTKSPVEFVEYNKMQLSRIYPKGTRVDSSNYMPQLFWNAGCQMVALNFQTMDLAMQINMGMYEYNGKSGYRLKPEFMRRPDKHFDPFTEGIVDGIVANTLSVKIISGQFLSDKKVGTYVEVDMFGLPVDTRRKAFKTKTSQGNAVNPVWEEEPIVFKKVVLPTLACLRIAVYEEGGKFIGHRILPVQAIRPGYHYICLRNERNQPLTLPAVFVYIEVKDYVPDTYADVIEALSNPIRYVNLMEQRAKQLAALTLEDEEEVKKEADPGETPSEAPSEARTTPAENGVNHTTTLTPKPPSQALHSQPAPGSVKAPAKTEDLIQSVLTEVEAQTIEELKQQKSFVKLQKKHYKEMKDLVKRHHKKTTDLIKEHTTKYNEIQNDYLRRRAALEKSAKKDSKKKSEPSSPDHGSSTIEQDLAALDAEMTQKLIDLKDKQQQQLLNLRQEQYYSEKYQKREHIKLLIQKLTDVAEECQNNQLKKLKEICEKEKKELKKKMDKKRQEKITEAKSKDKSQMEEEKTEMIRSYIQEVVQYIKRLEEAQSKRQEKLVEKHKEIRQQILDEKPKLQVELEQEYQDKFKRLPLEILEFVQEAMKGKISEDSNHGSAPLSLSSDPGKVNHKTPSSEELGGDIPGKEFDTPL


Legend:
[1] = biological target: T1, 1-phosphatidylinositol 4,5-bisphosphate phosphodiesterase beta-1 (Homo sapiens); experiment: Ratio of the kinetic constant kcat to that of KM
[2] = biological target: T1, 1-phosphatidylinositol 4,5-bisphosphate phosphodiesterase beta-1 (Homo sapiens); experiment: Kinetic constant kcat against human phosphoinositide-specific phospholipase C
[3] = substrate: O=[N+]([O-])c1ccc(OP(=O)(O)O[C@@H]2[C@H](O)[C@H](O)[C@@H](OP(=O)(O)O)[C@H](OP(=O)(O)O)[C@H]2O)cc1; experiment: Kinetic constant Vmax against human phosphoinositide-specific phospholipase C
[4] = substrate: O=[N+]([O-])c1ccc(OP(=O)(O)O[C@@H]2[C@H](O)[C@H](O)[C@@H](OP(=O)(O)O)[C@H](OP(=O)(O)O)[C@H]2O)cc1; experiment: Michaelis-Menten constant of the compound (D-isomer) was determined against human phosphoinositide-specific phospholipase C
[5] = substrate: O=[N+]([O-])c1ccc(OP(=O)(O)O[C@@H]2[C@H](O)[C@H](O)[C@@H](OP(=O)(O)O)[C@H](OP(=O)(O)O)[C@H]2O)cc1; experiment: Michaelis-Menten constant against human phosphoinositide-specific phospholipase C

Ratio [1]	k cat [2]	Molecule	Vmax [3]	Km [4]	Km [5]
83000	112 s⁻¹	O=[N+]([O-])c1ccc(OP(=O)(O)O[C@@H]2[C@H](O)[C@H](O)[C@@H](OP(=O)(O)O)[C@H](OP(=O)(O)O)[C@H]2O)cc1 (racemic)			
		1-phosphatidylinositol 4,5-bisphosphate phosphodiesterase beta-1 (Homo sapiens), Q9NQ66 (protein) MAGAQPGVHALQLKPVCVSDSLKKGTKFVKWDDDSTIVTPIILRTDPQGFFFYWTDQNKETELLDLSLVKDARCGRHAKAPKDPKLRELLDVGNIGRLEQRMITVVYGPDLVNISHLNLVAFQEEVAKEWTNEVFSLATNLLAQNMSRDAFLEKAYTKLKLQVTPEGRIPLKNIYRLFSADRKRVETALEACSLPSSRNDSIPQEDFTPEVYRVFLNNLCPRPEIDNIFSEFGAKSKPYLTVDQMMDFINLKQRDPRLNEILYPPLKQEQVQVLIEKYEPNNSLARKGQISVDGFMRYLSGEENGVVSPEKLDLNEDMSQPLSHYFINSSHNTYLTAGQLAGNSSVEMYRQVLLSGCRCVELDCWKGRTAEEEPVITHGFTMTTEISFKEVIEAIAECAFKTSPFPILLSFENHVDSPKQQAKMAEYCRLIFGDALLMEPLEKYPLESGVPLPSPMDLMYKILVKNKKKSHKSSEGSGKKKLSEQASNTYSDSSSMFEPSSPGAGEADTESDDDDDDDDCKKSSMDEGTAGSEAMATEEMSNLVNYIQPVKFESFEISKKRNKSFEMSSFVETKGLEQLTKSPVEFVEYNKMQLSRIYPKGTRVDSSNYMPQLFWNAGCQMVALNFQTMDLAMQINMGMYEYNGKSGYRLKPEFMRRPDKHFDPFTEGIVDGIVANTLSVKIISGQFLSDKKVGTYVEVDMFGLPVDTRRKAFKTKTSQGNAVNPVWEEEPIVFKKVVLPTLACLRIAVYEEGGKFIGHRILPVQAIRPGYHYICLRNERNQPLTLPAVFVYIEVKDYVPDTYADVIEALSNPIRYVNLMEQRAKQLAALTLEDEEEVKKEADPGETPSEAPSEARTTPAENGVNHTTTLTPKPPSQALHSQPAPGSVKAPAKTEDLIQSVLTEVEAQTIEELKQQKSFVKLQKKHYKEMKDLVKRHHKKTTDLIKEHTTKYNEIQNDYLRRRAALEKSAKKDSKKKSEPSSPDHGSSTIEQDLAALDAEMTQKLIDLKDKQQQQLLNLRQEQYYSEKYQKREHIKLLIQKLTDVAEECQNNQLKKLKEICEKEKKELKKKMDKKRQEKITEAKSKDKSQMEEEKTEMIRSYIQEVVQYIKRLEEAQSKRQEKLVEKHKEIRQQILDEKPKLQVELEQEYQDKFKRLPLEILEFVQEAMKGKISEDSNHGSAPLSLSSDPGKVNHKTPSSEELGGDIPGKEFDTPL	78.5 µM/min/mg	1350 µM	2700 µM
